Measurements as given in patent publication US20230049152A1 (Genentech, published 2023).
Each block holds one binder with its values, some of them ahead of it.

Assays:
[1] = target: T1, human CCR8 (human, UniProt P51685 1-355); assay: cell-based or functional assay
[2] = target: T1, human CCR8; assay: cell-based or functional assay; remark: listed apart in the source
[3] = target: T2, GST-FcgR3a.F158 (UniProt P08637 17-208, limits assumed); assay: ELISA, GST-FcgR3a captured by anti-GST antibody
T2 construct: Captured by anti-GST antibody on ELISA plate; also called FcgR3a.F158 protein; Fcgamma RIIIa F158; not shown: GST tag
T2 sequence (P08637 17-208 limits assumed): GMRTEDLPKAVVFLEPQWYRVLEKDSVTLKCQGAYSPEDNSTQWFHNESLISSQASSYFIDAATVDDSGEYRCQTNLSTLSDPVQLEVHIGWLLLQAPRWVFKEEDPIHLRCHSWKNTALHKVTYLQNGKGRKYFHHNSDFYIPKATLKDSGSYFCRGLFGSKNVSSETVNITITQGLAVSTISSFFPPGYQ
Description: (§1) The binding of fucosylated and afucosylated variants of hu.Ab5.H13L1 and hu.Ab4.H12L3 to both FcgR3a proteins by ELISA was studied. Briefly, an anti-GST antibody was coated on Nunc Maxisorp plates. GST-FcgR3a.V158 and GST-FcgR3a.F158 were captured at 500 ng/mL. Plates were then washed and then serially diluted anti-CCR8 antibodies starting at 100 ug/mL were incubated on the plate for 1 hour at room temperature. Plates were washed and bound antibody was detected by a HRP-conjugated anti-human IgG secondary antibody. Absorbance at 450 nm was measured by a plate reader. The data were fitted using a 4-parameter logistic curve in Softmax Pro.

[4] = target: T3, GST-FcgR3a.V158 (UniProt P08637 17-208, limits assumed); assay: ELISA, GST-FcgR3a captured by anti-GST antibody
T3 construct: Captured by anti-GST antibody on ELISA plate; also called FcgR3a.V158 protein; Fcgamma RIIIa V158; not shown: GST tag
T3 sequence (P08637 17-208 F176V limits assumed): as the sequence (P08637 17-208 limits assumed) above, with F160V counted along it
Description: as §1

[5] = target: T2, GST-FcgR3a.F158; assay: ELISA, GST-FcgR3a.F158 captured by anti-GST antibody
Description: as §1

[6] = target: T3, GST-FcgR3a.V158; assay: ELISA, GST-FcgR3a.V158 captured by anti-GST antibody
Description: as §1

[7] = target: T4, cyno CCR8 (cynomolgus monkey, UniProt O97665 1-356 (rhesus entry)); assay: whole-blood flow cytometry of cyno blood spiked ex vivo with a saturating concentration of the antibody, detected with labeled goat anti-human IgG on FoxP3+ T-reg cells; relative percentage of CCR8+ T-reg cells
T4 construct: also called cynomolgus monkey CCR8
T4 sequence (O97665 other isoform, or with tags, fused parts or gaps): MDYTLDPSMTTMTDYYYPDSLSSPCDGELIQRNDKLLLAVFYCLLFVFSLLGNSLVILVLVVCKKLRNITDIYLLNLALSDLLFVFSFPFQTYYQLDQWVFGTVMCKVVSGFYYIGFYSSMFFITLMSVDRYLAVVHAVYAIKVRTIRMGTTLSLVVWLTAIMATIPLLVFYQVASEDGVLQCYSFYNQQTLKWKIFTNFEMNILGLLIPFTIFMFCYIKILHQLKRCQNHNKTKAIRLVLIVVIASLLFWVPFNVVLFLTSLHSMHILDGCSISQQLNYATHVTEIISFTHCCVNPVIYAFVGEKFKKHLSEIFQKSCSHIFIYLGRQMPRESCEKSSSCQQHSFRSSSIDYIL
Description: Blood was collected from each of the animals before dosing (“Pre-study”), as well as on Day 1 at 0 hours (“Pre-dose”). Each of the animals were then administered a single dose of 10 mg/kg afucosylated anti-gD (Control Group), Afuc.hu.Ab5.H13L1 (Group 2) or Afuc.hu.Ab4.H12L3 (Group 3) via intravenous injection. Blood was then collected from the animals and subjected to the following treatment prior to flow cytometry analysis: (i) blood sample not spiked with either test CCR8 mAb (“unspiked”), (ii) blood sample further spiked with a saturating concentration of Afuc.hu.Ab5.H13L1, and (iii) blood sample further spiked with a saturating concentration of Afuc.hu.Ab4.H12L3. Each of the unspiked and spiked samples were subsequently treated with a labeled goat anti-human IgG antibody and analyzed by flow cytometry. […] Furthermore, flow cytometry of spiked blood also had very little effect on the total CCR8+T-reg cell count.
Anti-CCR8 antibodies Afuc.hu.Ab5.H13L1, Afuc.hu.Ab4.H12L3, and the control anti-gD were used for this study.

[8] = target: T1, human CCR8; assay: cell-based or functional assay; remark: listed apart in the source
[9] = target: T4, cyno CCR8; assay: flow cytometry on human and cyno CCR8 CHO cells
[10] = target: T5, human CCR2 (human, UniProt P41597 1-374); assay: flow cytometry, HEK293 with N-term FLAG-tagged human CCR2
T5 construct: whole, on cells; transiently expressed on HEK293 cells
T5 sequence (P41597 whole entry): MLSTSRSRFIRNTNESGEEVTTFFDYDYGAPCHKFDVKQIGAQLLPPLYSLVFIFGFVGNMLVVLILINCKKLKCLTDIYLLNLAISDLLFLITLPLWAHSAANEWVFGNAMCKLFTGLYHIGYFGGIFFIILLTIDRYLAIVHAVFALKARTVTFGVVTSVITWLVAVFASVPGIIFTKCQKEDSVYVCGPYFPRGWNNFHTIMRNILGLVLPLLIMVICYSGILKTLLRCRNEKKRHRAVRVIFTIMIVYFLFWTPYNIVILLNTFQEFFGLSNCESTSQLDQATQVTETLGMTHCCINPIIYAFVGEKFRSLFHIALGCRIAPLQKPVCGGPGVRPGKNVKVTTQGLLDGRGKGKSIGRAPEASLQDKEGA
Source text: (§2) FIGS. 4A-4F depicts the binding data of hu.Ab3.H1L1 (FIG. 4A), hu.Ab4.H1L1 (FIG. 4B), and hu.Ab5.H1L1 (FIG. 4C), as well as the commercial anti-CCR8 mAbs murine anti-human CCR8 mAb 433H (BD Biosciences) (FIG. 4D), and murine anti-human CCR8 mAb L263G8 (Biolegend) (FIG. 4E), and the humanized anti-human Yoshida anti-CCR8 mAb (FIG. 4F), to HEK293 cells that were transiently transfected with N-term FLAG-tagged plasmids encoding for human GPCRs (CCR2, CCR3, CCR4, CCR5, CCR8, CXCR4, ACKR2, and ACKR4), hCCR8 constructs, or with a mock construct using transIT X2 (reagent:DNA=3:1).
To confirm the selectivity to CCR8, the binding of hu.Ab3.H1L1, hu.Ab4.H1L1, and hu.Ab5.H1L1, as well as the Yoshida humanized anti-human CCR8, murine anti-human CCR8 mAb L263G8 (Biolegend, Commercial Ab) and murine anti-human CCR8 mAb 433H (BD Biosciences, Commercial Ab), were characterized by flow cytometry on HEK293 cells that were transiently transfected with plasmids encoding for FLAG-tagged other related human GPCRs (CCR2-5, CXCR4, ACKR2, and ACKR4). Cell surface expression of each GPCR was confirmed by staining with an anti-FLAG antibody control. In particular, HEK293 cells were transfected with N-term FLAG-tagged human CCR2, CCR3, CCR4, CCR5, CXCR4, ACKR2, ACKR4, hCCR8 constructs, or with a Mock construct using transIT X2 (reagent:DNA=3:1) for 24 hours, and surface stained with various anti-hCCR8 monoclonal antibodies at 5 ug/ml, or rabbit anti-Flag pAb (Sigma) followed by AF647-anti-hIgG or AF647-anti-RbIgG respectively. Antibodies hu.Ab4.H1L1, and hu.Ab5.H1L1, only stained the hCCR8-containing cells, confirming their specificity to hCCR8. […] Thus, the CCR8 selective hu.Ab4.H1L1 and hu.Ab5.H1L1 antibodies with the best ADCC activities were carried forward.

[11] = target: T1, human CCR8; assay: flow cytometry, 2 ug/mL mAb, Treg cells of human colorectal dissociated tumor cells
Description: The mAbs were evaluated for binding to regulatory T cells (Treg cells or Tregs) by Fluorescence-Activated Cell Sorting (FACS) flow cytometry. Human colorectal dissociated tumor cells (DTC) (Discovery Life Sciences) were thawed according to vendor's protocol. Cells were surface stained with eFluor 780-conjugated Fixable Viability Dye (ThermoFisher Scientific) and 2 ug/mL mAb specific for CCR8, OX40 (positive control), Herceptin (negative control), or anti-hIgG (negative control) for 20 min at 4° C. followed by secondary detection with AF647-conjugated AffiniPure F(ab′)2 Fragment Goat anti-Human IgG, Fcg fragment-specific (Jackson ImmunoResearch) for 10 min at 4° C. Cells were then intracellularly stained using the eBioscience Foxp3/Transcription Factor Staining Buffer Set (ThermoFisher Scientific) according to the manufacturer's protocol. […] Shown in FIG. 1 are mean fluorescent intensity (MFI) values for CD8 T cells (defined as CD45+CD14−CD3+CD8+CD4−) (circles, ◯), conventional CD4 T cells (defined as CD45+CD14−CD3+CD8−CD4+FOXP3−) (squares, □), and Treg cells (defined as CD45+CD14−CD3+CD8−CD4+FOXP3+) (triangles, ▴). Three of the five CCR8 mAb clones specifically stained Treg cells and not conventional CD4 or CD8 T cells and were ranked according to CCR8 MFI, greater than 500 MFI: hu.Ab4.H1L1>hu.Ab5.H1L1>hu.Ab3.H1L1. Upon confirmation that these three CCR8 mAb clones, namely, hu.Ab3.H1L1, hu.Ab4.H1L1, and hu.Ab5.H1L1, also retained human-cyno cross-reactivity (differences less than 5-fold on human and cyno CCR8 CHO cells), these antibodies carried forward for further exploration.

[12] = target: T6, human CCR3 (human, UniProt P51677 1-355); assay: flow cytometry, HEK293 transiently transfected with N-term FLAG-tagged human CCR3, antibody at 5 ug/ml
T6 construct: whole, on cells; transiently expressed on HEK293 cells
T6 sequence (looked up): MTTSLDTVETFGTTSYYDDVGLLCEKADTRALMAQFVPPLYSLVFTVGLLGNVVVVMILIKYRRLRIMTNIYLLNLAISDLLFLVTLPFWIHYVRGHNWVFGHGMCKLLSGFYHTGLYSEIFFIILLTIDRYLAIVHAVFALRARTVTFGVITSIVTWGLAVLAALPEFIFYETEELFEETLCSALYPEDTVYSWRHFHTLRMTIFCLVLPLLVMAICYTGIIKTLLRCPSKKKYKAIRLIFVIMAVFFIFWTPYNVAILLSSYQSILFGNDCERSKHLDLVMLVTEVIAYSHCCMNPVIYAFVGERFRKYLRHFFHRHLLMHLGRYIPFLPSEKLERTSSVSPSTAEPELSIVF
Source text: as §2
(§3) To confirm the selectivity to CCR8, the binding of hu.Ab3.H1L1, hu.Ab4.H1L1, and hu.Ab5.H1L1, as well as the Yoshida humanized anti-human CCR8, murine anti-human CCR8 mAb L263G8 (Biolegend, Commercial Ab) and murine anti-human CCR8 mAb 433H (BD Biosciences, Commercial Ab), were characterized by flow cytometry on HEK293 cells that were transiently transfected with plasmids encoding for FLAG-tagged other related human GPCRs (CCR2-5, CXCR4, ACKR2, and ACKR4). Cell surface expression of each GPCR was confirmed by staining with an anti-FLAG antibody control. […]

[13] = target: T7, human CCR5 (human, UniProt P51681 1-352); assay: flow cytometry, HEK293 transiently transfected with N-term FLAG-tagged human CCR5, antibody at 5 ug/ml
T7 construct: whole, on cells; transiently expressed on HEK293 cells
T7 sequence (P51681 whole entry): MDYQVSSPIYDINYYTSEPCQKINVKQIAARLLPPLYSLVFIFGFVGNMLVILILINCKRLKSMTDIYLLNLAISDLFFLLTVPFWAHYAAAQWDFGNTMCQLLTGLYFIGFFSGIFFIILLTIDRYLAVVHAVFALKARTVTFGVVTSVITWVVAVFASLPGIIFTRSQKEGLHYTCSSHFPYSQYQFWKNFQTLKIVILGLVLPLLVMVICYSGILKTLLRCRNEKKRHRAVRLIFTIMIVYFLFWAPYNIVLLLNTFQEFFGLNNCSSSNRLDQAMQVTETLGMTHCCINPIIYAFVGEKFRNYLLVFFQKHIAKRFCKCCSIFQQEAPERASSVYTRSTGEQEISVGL
Source text: as §2, §3

[14] = target: T8, human ACKR4 (human, UniProt Q9NPB9 1-350); assay: flow cytometry, HEK293 transiently transfected with N-term FLAG-tagged human ACKR4, antibody at 5 ug/ml
T8 construct: whole, on cells; transiently expressed on HEK293 cells
T8 sequence (looked up): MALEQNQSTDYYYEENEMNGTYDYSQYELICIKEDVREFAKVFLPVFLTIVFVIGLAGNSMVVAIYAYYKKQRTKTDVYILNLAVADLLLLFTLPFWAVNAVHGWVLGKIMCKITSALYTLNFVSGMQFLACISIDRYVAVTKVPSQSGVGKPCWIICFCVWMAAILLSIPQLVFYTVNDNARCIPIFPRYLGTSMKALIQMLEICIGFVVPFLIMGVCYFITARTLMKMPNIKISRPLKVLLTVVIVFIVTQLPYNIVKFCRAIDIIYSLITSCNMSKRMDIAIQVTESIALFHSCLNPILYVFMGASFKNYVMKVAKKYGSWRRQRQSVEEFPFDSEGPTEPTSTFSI
Source text: as §2, §3

[15] = target: T9, human CXCR4 (human, UniProt P61073 1-352); assay: flow cytometry, HEK293 transiently transfected with N-term FLAG-tagged human CXCR4, antibody at 5 ug/ml
T9 construct: whole, on cells; transiently expressed on HEK293 cells
T9 sequence (P61073 whole entry): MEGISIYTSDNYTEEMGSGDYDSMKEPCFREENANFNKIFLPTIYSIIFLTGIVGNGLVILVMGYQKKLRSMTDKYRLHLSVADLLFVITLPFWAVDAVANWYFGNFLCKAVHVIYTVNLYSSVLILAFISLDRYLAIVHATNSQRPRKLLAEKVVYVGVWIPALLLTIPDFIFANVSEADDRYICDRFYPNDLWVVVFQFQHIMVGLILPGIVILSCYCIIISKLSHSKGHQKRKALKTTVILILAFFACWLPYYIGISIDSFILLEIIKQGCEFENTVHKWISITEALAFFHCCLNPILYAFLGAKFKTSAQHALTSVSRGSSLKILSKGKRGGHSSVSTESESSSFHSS
Source text: as §2, §3

- ADCC EC50, NK-92 F158 cells (FIG. 11A) [1]: 0.0047 nM
- ADCC EC50, NK-92 F158 cells (FIG. 11C) [1]: 0.003 nM
- ADCC EC50, NK-92 V158 cells (FIG. 11B) [1]: 0.0073 nM
- ADCP EC50, macrophages HR/FF (FIG. 14A) [2]: 0.017 nM
- ADCP EC50, macrophages HR/FF (FIG. 14E) [2]: 0.022 nM
- ADCP EC50, macrophages HR/VF (FIG. 14C) [2]: 0.01 nM
- ADCP EC50, macrophages RR/FF (FIG. 14B) [2]: 0.2 nM
- ADCP EC50, macrophages RR/VF (FIG. 14D) [2]: 0.5 nM
- fold increase in binding potency versus fucosylated counterpart [3]: ~10 fold
- fold increase in binding potency versus fucosylated counterpart [4]: ~10 fold
- EC50 [5]: 0.101 µg/mL
- EC50 [6]: 0.035 µg/mL
- binding result [7]: binds
B1: Afuc.hu.Ab5.H13L1 (antibody, human IgG1, kappa)
heavy: not shown
light: DIQVTQSPSSLSASVGDRVTITCQASENIANALAWYQQKPGKPPKFLIYGASNLASGVPSRFSGSGSGTDFTFTISSLQPEDIATYYCQQAYYGNSFVEGTFGGGTKVEIKRTVAAPSVFIFPPSDEQLKSGTASVVCLLNNFYPREAKVQWKVDNALQSGNSQESVTEQDSKDSTYSLSSTLTLSKADYEKHKVYACEVTHQGLSSPVTKSFNRGEC
modifications: afucosylated Fc N-glycan at position Asn299; between about 80% to about 95% afucosylation
notes: also called Afuc.Ab5.H13L1; afucosylated hu.Ab5.H13L1

- ADCC EC50, NK-92_F158 effector cells, calcein release [8]: 0.02 nM
- binding result [9]: binds
- binding result [10]: no binding (tested: 5 ug/ml)
- MFI [11]: > 500 MFI
- binding result [12]: binds
- binding result [13]: binds
- binding result [14]: binds
- binding result [15]: binds
B2: hu.Ab3.H1L1 (antibody, human IgG1, kappa, V domains shown)
VH: EQQLVESGGGLVQPGGSLRLSCAVSGFSLSSYAMSWVRQAPGKGLEWIGVISASGRIIYATWAKGRFTISKDSAKTSVYLQMNSLRDEDTAVYFCARGVPSYSLVMSDWGPGTTVTVSS
VL: EPVMTQSPATLSVSPGERATLSCQASQSISNALAWYQQKPGQPPRLLIYEVSKVASGVPARFSGSGSGTEFTLTISSLQSEDFAVYYCQSAYYGNSYVWGAFGQGTKVEIKR
notes: humanized, human IgG1
